Assay [1] addresses T1, human calcitonin receptor on BHK570/CRE-luc cells (human, UniProt P30988 25-474).
T1 sequence (looked up): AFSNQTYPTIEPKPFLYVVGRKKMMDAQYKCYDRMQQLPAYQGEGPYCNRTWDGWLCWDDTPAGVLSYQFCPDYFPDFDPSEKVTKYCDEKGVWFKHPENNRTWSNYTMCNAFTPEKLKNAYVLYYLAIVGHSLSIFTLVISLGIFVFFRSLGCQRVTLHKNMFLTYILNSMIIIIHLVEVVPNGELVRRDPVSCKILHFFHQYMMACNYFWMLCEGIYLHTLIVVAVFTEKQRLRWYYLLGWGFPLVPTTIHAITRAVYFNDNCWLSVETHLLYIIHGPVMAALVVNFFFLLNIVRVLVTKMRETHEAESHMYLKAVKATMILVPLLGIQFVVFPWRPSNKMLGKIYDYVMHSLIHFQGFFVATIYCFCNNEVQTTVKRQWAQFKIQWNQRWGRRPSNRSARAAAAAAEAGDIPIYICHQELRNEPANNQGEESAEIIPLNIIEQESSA
As to the kind of experiment: cell-based or functional assay.

Assay [2] addresses T2, human amylin 3(a) receptor (human calcitonin receptor co-expressed with RAMP-3) on BHK570/CRE-luc cells (human, UniProt P30988 25-474; O60896 24-148).
T2 sequence (looked up) 1: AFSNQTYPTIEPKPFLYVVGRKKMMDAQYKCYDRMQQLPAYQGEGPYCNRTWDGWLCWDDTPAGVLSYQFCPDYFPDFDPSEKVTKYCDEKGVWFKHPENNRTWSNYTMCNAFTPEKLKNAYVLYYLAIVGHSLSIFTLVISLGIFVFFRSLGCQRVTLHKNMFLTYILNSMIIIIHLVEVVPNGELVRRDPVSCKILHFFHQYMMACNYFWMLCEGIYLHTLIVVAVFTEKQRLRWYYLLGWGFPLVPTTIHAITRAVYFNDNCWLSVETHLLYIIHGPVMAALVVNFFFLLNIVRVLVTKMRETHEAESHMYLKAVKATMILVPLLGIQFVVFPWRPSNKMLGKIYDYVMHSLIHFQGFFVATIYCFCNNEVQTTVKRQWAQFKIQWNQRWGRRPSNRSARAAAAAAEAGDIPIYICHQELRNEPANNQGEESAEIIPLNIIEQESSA
T2 sequence (looked up) 2: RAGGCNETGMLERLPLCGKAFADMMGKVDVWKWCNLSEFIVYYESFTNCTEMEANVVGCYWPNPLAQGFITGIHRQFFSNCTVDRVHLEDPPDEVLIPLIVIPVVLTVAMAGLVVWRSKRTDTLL
The experiment in a line: cell-based or functional assay.

Numbered stars: 1 amine (or outer) side, 2 acyl side, 3 side chain; on linkers, the order of the positions; unused ones are H or OH. * marks the point of attachment. C20 diacid = O=C(O)CCCCCCCCCCCCCCCCCCC(=O)*; C18 diacid = O=C(O)CCCCCCCCCCCCCCCCC(=O)*; γGlu = O=C(O)[C@H](CCC(=O)[*:2])N[*:1]

B1: [N-terminal(C20 diacid-gGlu), des1, 12H, 25H, 30T, 31G, 32T]mimylin (peptide)
peptide: {C20 diacid-γGlu}-ASELSTAALGHLSAELHELATLPHTETGTGTP-NH2
SMILES: CC(C)C[C@H](NC(=O)[C@H](C)NC(=O)[C@H](C)NC(=O)[C@@H](NC(=O)[C@H](CO)NC(=O)[C@H](CC(C)C)NC(=O)[C@H](CCC(=O)O)NC(=O)[C@H](CO)NC(=O)[C@H](C)NC(=O)CC[C@H](NC(=O)CCCCCCCCCCCCCCCCCCC(=O)O)C(=O)O)[C@@H](C)O)C(=O)NCC(=O)N[C@@H](Cc1c[nH]cn1)C(=O)N[C@@H](CC(C)C)C(=O)N[C@@H](CO)C(=O)N[C@@H](C)C(=O)N[C@@H](CCC(=O)O)C(=O)N[C@@H](CC(C)C)C(=O)N[C@@H](Cc1c[nH]cn1)C(=O)N[C@@H](CCC(=O)O)C(=O)N[C@@H](CC(C)C)C(=O)N[C@@H](C)C(=O)N[C@H](C(=O)N[C@@H](CC(C)C)C(=O)N1CCC[C@H]1C(=O)N[C@@H](Cc1c[nH]cn1)C(=O)N[C@H](C(=O)N[C@@H](CCC(=O)O)C(=O)N[C@H](C(=O)NCC(=O)N[C@H](C(=O)NCC(=O)N[C@H](C(=O)N1CCC[C@H]1C(N)=O)[C@@H](C)O)[C@@H](C)O)[C@@H](C)O)[C@@H](C)O)[C@@H](C)O
For B1, the “hCTR funct. EC50 (pM), tested with HSA” value in assay [1] was 109 pM. Also, in assay [2], the “hAmylin-R funct. EC50 (pM), tested with HSA” value (from here on “hAmylin-R funct. EC50 (pM)”) was 729 pM.

B2: [N-terminal(C18 diacid-gGlu), des1, 5V, 9V, 10V, 30S, 31G]mimylin (peptide)
peptide: {C18 diacid-γGlu}-ASEVSTAVVGRLSAELHELATLPRTETGSGSP-NH2
SMILES: CC(C)C[C@H](NC(=O)[C@H](CCC(=O)O)NC(=O)[C@H](Cc1c[nH]cn1)NC(=O)[C@H](CC(C)C)NC(=O)[C@H](CCC(=O)O)NC(=O)[C@H](C)NC(=O)[C@H](CO)NC(=O)[C@H](CC(C)C)NC(=O)[C@H](CCCNC(=N)N)NC(=O)CNC(=O)[C@@H](NC(=O)[C@@H](NC(=O)[C@H](C)NC(=O)[C@@H](NC(=O)[C@H](CO)NC(=O)[C@@H](NC(=O)[C@H](CCC(=O)O)NC(=O)[C@H](CO)NC(=O)[C@H](C)NC(=O)CC[C@H](NC(=O)CCCCCCCCCCCCCCCCC(=O)O)C(=O)O)C(C)C)[C@@H](C)O)C(C)C)C(C)C)C(=O)N[C@@H](C)C(=O)N[C@H](C(=O)N[C@@H](CC(C)C)C(=O)N1CCC[C@H]1C(=O)N[C@@H](CCCNC(=N)N)C(=O)N[C@H](C(=O)N[C@@H](CCC(=O)O)C(=O)N[C@H](C(=O)NCC(=O)N[C@@H](CO)C(=O)NCC(=O)N[C@@H](CO)C(=O)N1CCC[C@H]1C(N)=O)[C@@H](C)O)[C@@H](C)O)[C@@H](C)O
For B2, the “hCTR funct. EC50 (pM), tested with HSA” value in assay [1] amounted to 11 pM. Also, the “hAmylin-R funct. EC50 (pM)” value in assay [2] was 38 pM.

B3: [N-terminal(C20 diacid-gGlu), des1, 23Y, 30S, 31G, 34G, C-terminal(-)]mimylin (peptide)
peptide: {C20 diacid-γGlu}-ASELSTAALGRLSAELHELATYPRTETGSGSPG-OH
SMILES: CC(C)C[C@H](NC(=O)[C@H](C)NC(=O)[C@H](C)NC(=O)[C@@H](NC(=O)[C@H](CO)NC(=O)[C@H](CC(C)C)NC(=O)[C@H](CCC(=O)O)NC(=O)[C@H](CO)NC(=O)[C@H](C)NC(=O)CC[C@H](NC(=O)CCCCCCCCCCCCCCCCCCC(=O)O)C(=O)O)[C@@H](C)O)C(=O)NCC(=O)N[C@@H](CCCNC(=N)N)C(=O)N[C@@H](CC(C)C)C(=O)N[C@@H](CO)C(=O)N[C@@H](C)C(=O)N[C@@H](CCC(=O)O)C(=O)N[C@@H](CC(C)C)C(=O)N[C@@H](Cc1c[nH]cn1)C(=O)N[C@@H](CCC(=O)O)C(=O)N[C@@H](CC(C)C)C(=O)N[C@@H](C)C(=O)N[C@H](C(=O)N[C@@H](Cc1ccc(O)cc1)C(=O)N1CCC[C@H]1C(=O)N[C@@H](CCCNC(=N)N)C(=O)N[C@H](C(=O)N[C@@H](CCC(=O)O)C(=O)N[C@H](C(=O)NCC(=O)N[C@@H](CO)C(=O)NCC(=O)N[C@@H](CO)C(=O)N1CCC[C@H]1C(=O)NCC(=O)O)[C@@H](C)O)[C@@H](C)O)[C@@H](C)O
For the molecule B3, the “hCTR funct. EC50 (pM), tested with HSA” value in assay [1] amounted to 50 pM. For the same molecule, the “hAmylin-R funct. EC50 (pM)” value in assay [2] came out at 210 pM.

B4: [N-terminal(C20 diacid-gGlu), des1, 23Y, 30S, 31G, 34K, C-terminal(-)]mimylin (peptide)
peptide: {C20 diacid-γGlu}-ASELSTAALGRLSAELHELATYPRTETGSGSPK-OH
SMILES: CC(C)C[C@H](NC(=O)[C@H](C)NC(=O)[C@H](C)NC(=O)[C@@H](NC(=O)[C@H](CO)NC(=O)[C@H](CC(C)C)NC(=O)[C@H](CCC(=O)O)NC(=O)[C@H](CO)NC(=O)[C@H](C)NC(=O)CC[C@H](NC(=O)CCCCCCCCCCCCCCCCCCC(=O)O)C(=O)O)[C@@H](C)O)C(=O)NCC(=O)N[C@@H](CCCNC(=N)N)C(=O)N[C@@H](CC(C)C)C(=O)N[C@@H](CO)C(=O)N[C@@H](C)C(=O)N[C@@H](CCC(=O)O)C(=O)N[C@@H](CC(C)C)C(=O)N[C@@H](Cc1c[nH]cn1)C(=O)N[C@@H](CCC(=O)O)C(=O)N[C@@H](CC(C)C)C(=O)N[C@@H](C)C(=O)N[C@H](C(=O)N[C@@H](Cc1ccc(O)cc1)C(=O)N1CCC[C@H]1C(=O)N[C@@H](CCCNC(=N)N)C(=O)N[C@H](C(=O)N[C@@H](CCC(=O)O)C(=O)N[C@H](C(=O)NCC(=O)N[C@@H](CO)C(=O)NCC(=O)N[C@@H](CO)C(=O)N1CCC[C@H]1C(=O)N[C@@H](CCCCN)C(=O)O)[C@@H](C)O)[C@@H](C)O)[C@@H](C)O
Take B4: the “hCTR funct. EC50 (pM), tested with HSA” value in assay [1] was determined as 53 pM. Besides, the “hAmylin-R funct. EC50 (pM)” value in assay [2] worked out at 209 pM.

B5: [N-terminal(C20 diacid-gGlu), des1, 23Y, 30S, 31G, 33Y, C-terminal(-)]mimylin (peptide)
peptide: {C20 diacid-γGlu}-ASELSTAALGRLSAELHELATYPRTETGSGSY-OH
For B5, the “hCTR funct. EC50 (pM), tested with HSA” value in assay [1] came to 418 pM. Moreover, in assay [2], the “hAmylin-R funct. EC50 (pM)” value stood at 976 pM.

B6: [N-terminal(C20 diacid-gGlu), des1, 9S, 23Y, 30S, 31G, 33Y]mimylin (peptide)
peptide: {C20 diacid-γGlu}-ASELSTASLGRLSAELHELATYPRTETGSGSY-NH2
SMILES: CC(C)C[C@H](NC(=O)[C@H](CO)NC(=O)[C@H](C)NC(=O)[C@@H](NC(=O)[C@H](CO)NC(=O)[C@H](CC(C)C)NC(=O)[C@H](CCC(=O)O)NC(=O)[C@H](CO)NC(=O)[C@H](C)NC(=O)CC[C@H](NC(=O)CCCCCCCCCCCCCCCCCCC(=O)O)C(=O)O)[C@@H](C)O)C(=O)NCC(=O)N[C@@H](CCCNC(=N)N)C(=O)N[C@@H](CC(C)C)C(=O)N[C@@H](CO)C(=O)N[C@@H](C)C(=O)N[C@@H](CCC(=O)O)C(=O)N[C@@H](CC(C)C)C(=O)N[C@@H](Cc1c[nH]cn1)C(=O)N[C@@H](CCC(=O)O)C(=O)N[C@@H](CC(C)C)C(=O)N[C@@H](C)C(=O)N[C@H](C(=O)N[C@@H](Cc1ccc(O)cc1)C(=O)N1CCC[C@H]1C(=O)N[C@@H](CCCNC(=N)N)C(=O)N[C@H](C(=O)N[C@@H](CCC(=O)O)C(=O)N[C@H](C(=O)NCC(=O)N[C@@H](CO)C(=O)NCC(=O)N[C@@H](CO)C(=O)N[C@@H](Cc1ccc(O)cc1)C(N)=O)[C@@H](C)O)[C@@H](C)O)[C@@H](C)O
For the molecule B6, in assay [1], the “hCTR funct. EC50 (pM), tested with HSA” value came out at 42 pM. Moreover, in assay [2], the “hAmylin-R funct. EC50 (pM)” value came to 81 pM.

B7: [N-terminal(C18 diacid-gGlu), des1, 6T, 9V, 30S, 31G, 32T]mimylin (peptide)
peptide: {C18 diacid-γGlu}-ASELTTAVLGRLSAELHELATLPRTETGSGTP-NH2
Consider B7, for which the “hCTR funct. EC50 (pM), tested with HSA” value in assay [1] is 75 pM. Further, in assay [2], the “hAmylin-R funct. EC50 (pM)” value came to 30 pM.

B8: [N-terminal(C20 diacid-gGlu), des1, 9T, 21S, 23Y, 30S, 31G]mimylin (peptide)
peptide: {C20 diacid-γGlu}-ASELSTATLGRLSAELHELSTYPRTETGSGSP-NH2
SMILES: CC(C)C[C@H](NC(=O)[C@H](CCCNC(=N)N)NC(=O)CNC(=O)[C@H](CC(C)C)NC(=O)[C@@H](NC(=O)[C@H](C)NC(=O)[C@@H](NC(=O)[C@H](CO)NC(=O)[C@H](CC(C)C)NC(=O)[C@H](CCC(=O)O)NC(=O)[C@H](CO)NC(=O)[C@H](C)NC(=O)CC[C@H](NC(=O)CCCCCCCCCCCCCCCCCCC(=O)O)C(=O)O)[C@@H](C)O)[C@@H](C)O)C(=O)N[C@@H](CO)C(=O)N[C@@H](C)C(=O)N[C@@H](CCC(=O)O)C(=O)N[C@@H](CC(C)C)C(=O)N[C@@H](Cc1c[nH]cn1)C(=O)N[C@@H](CCC(=O)O)C(=O)N[C@@H](CC(C)C)C(=O)N[C@@H](CO)C(=O)N[C@H](C(=O)N[C@@H](Cc1ccc(O)cc1)C(=O)N1CCC[C@H]1C(=O)N[C@@H](CCCNC(=N)N)C(=O)N[C@H](C(=O)N[C@@H](CCC(=O)O)C(=O)N[C@H](C(=O)NCC(=O)N[C@@H](CO)C(=O)NCC(=O)N[C@@H](CO)C(=O)N1CCC[C@H]1C(N)=O)[C@@H](C)O)[C@@H](C)O)[C@@H](C)O
On to B8, for which, in assay [1], the “hCTR funct. EC50 (pM), tested with HSA” value was found to be 105 pM. Also, in assay [2], the “hAmylin-R funct. EC50 (pM)” value stood at 150 pM.

B9: [N-terminal(C18 diacid-gGlu), des1, 6T, 9V, 30T, 31G, 32T]mimylin (peptide)
peptide: {C18 diacid-γGlu}-ASELTTAVLGRLSAELHELATLPRTETGTGTP-NH2
B9: the “hCTR funct. EC50 (pM), tested with HSA” value in assay [1] turned out to be 13 pM. The “hAmylin-R funct. EC50 (pM)” value in assay [2] was determined as 52 pM.
